From the supplement of paper PMC9112550, “Optimization of the antimicrobial peptide Bac7 by deep mutational scanning” (BMC Biology, 2022)

test system: Escherichia coli TOP10; assay: shrunken log2 fold change of peptide-encoding DNA abundance (4.5 h post-induction vs induction); higher = less antimicrobial activity (less host growth inhibition); conditions: time post-induction: 4.5 h; library: site-saturation at positions 5, 18, 19, 20
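Note: peptides expressed intracellularly from a pBAD plasmid library in pooled LB shake-flask culture, induced with 0.3% L-arabinose, DNA abundance read by NGS, three biological replicates, DESeq2 with apeglm shrinkage.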

Sequence | shrunken log2 fold change
RRIRPRPPRLPRPRPRPERTPRP | 0.291
RRIRPRPPRLPRPRPRPQHCPRP | -0.0861
RRIRGRPPRLPRPRPRPFFQPRP | 0.103
RRIRARPPRLPRPRPRPTSSPRP | 0.289
RRIRDRPPRLPRPRPRPFSRPRP | -0.164
RRIRERPPRLPRPRPRPYCFPRP | -0.511
RRIRVRPPRLPRPRPRPWMNPRP | -0.00133
RRIRQRPPRLPRPRPRPPPVPRP | 0.607
RRIRKRPPRLPRPRPRPTCSPRP | 0.281
RRIRQRPPRLPRPRPRPKEDPRP | -0.0372
RRIRERPPRLPRPRPRPNLIPRP | -0.421
RRIRVRPPRLPRPRPRPCQRPRP | 0.0972
RRIRFRPPRLPRPRPRPFPGPRP | -0.00776
RRIRERPPRLPRPRPRPTIYPRP | 0.00607
RRIRRRPPRLPRPRPRPTESPRP | 0.121
RRIRGRPPRLPRPRPRPPKFPRP | 0.0991
RRIRVRPPRLPRPRPRPFAMPRP | -0.252
RRIRPRPPRLPRPRPRPFHNPRP | -0.541
RRIRRRPPRLPRPRPRPRLTPRP | 0.439
RRIRGRPPRLPRPRPRPNYTPRP | -0.338
RRIRPRPPRLPRPRPRPDLMPRP | 0.303
RRIRWRPPRLPRPRPRPYSMPRP | -0.314
RRIRFRPPRLPRPRPRPGISPRP | -0.0961
RRIRPRPPRLPRPRPRPETDPRP | 0.229
RRIRRRPPRLPRPRPRPMGRPRP | 0.464

Sequence | shrunken log2 fold change
RRIRARPPRLPRPRPRPYDLPRP | 0.0526
RRIRYRPPRLPRPRPRPENQPRP | -0.222
RRIRIRPPRLPRPRPRPVEHPRP | 0.0873
RRIRYRPPRLPRPRPRPDTIPRP | -0.145
RRIRGRPPRLPRPRPRPIRIPRP | 0.217
RRIRTRPPRLPRPRPRPEKKPRP | 0.0368
RRIRYRPPRLPRPRPRPVDVPRP | -0.359
RRIRRRPPRLPRPRPRPFKRPRP | -2.89e-05
RRIRPRPPRLPRPRPRPMELPRP | -0.00106
RRIRCRPPRLPRPRPRPYHSPRP | -0.73
RRIRGRPPRLPRPRPRPADLPRP | 0.604
RRIRDRPPRLPRPRPRPTMWPRP | 0.176
RRIRSRPPRLPRPRPRPYGRPRP | -0.151
RRIRQRPPRLPRPRPRPGQFPRP | 0.121
RRIRWRPPRLPRPRPRPAYWPRP | 0.473
RRIRERPPRLPRPRPRPSPEPRP | 0.0512
RRIRSRPPRLPRPRPRPQVFPRP | 0.0316
RRIRYRPPRLPRPRPRPGWIPRP | -0.328
RRIRDRPPRLPRPRPRPWMDPRP | -0.0272
RRIRARPPRLPRPRPRPREYPRP | 0.5
RRIRRRPPRLPRPRPRPDIEPRP | 0.172
RRIRWRPPRLPRPRPRPYVVPRP | -0.256
RRIRWRPPRLPRPRPRPKPIPRP | 0.477
RRIRARPPRLPRPRPRPFTGPRP | -0.00992
RRIRTRPPRLPRPRPRPITIPRP | -0.151

Sequence | shrunken log2 fold change
RRIRWRPPRLPRPRPRPGGDPRP | 0.556
RRIRMRPPRLPRPRPRPHCRPRP | 0.274
RRIRFRPPRLPRPRPRPHPHPRP | -0.168
RRIRRRPPRLPRPRPRPGEHPRP | 0.291
RRIRERPPRLPRPRPRPQFWPRP | 0.172
RRIRSRPPRLPRPRPRPHTVPRP | -0.218
RRIRFRPPRLPRPRPRPDDHPRP | -0.139
RRIRNRPPRLPRPRPRPFFKPRP | 0.0559
RRIRYRPPRLPRPRPRPAWRPRP | 0.0762
RRIRCRPPRLPRPRPRPRGDPRP | 0.867
RRIRWRPPRLPRPRPRPNWRPRP | 0.184
RRIRMRPPRLPRPRPRPLLDPRP | 0.409
RRIRERPPRLPRPRPRPATSPRP | 0.0131
RRIRQRPPRLPRPRPRPQKDPRP | -0.29
RRIRWRPPRLPRPRPRPDTSPRP | 0.0558
RRIRGRPPRLPRPRPRPWQYPRP | -0.0381
RRIRERPPRLPRPRPRPAWCPRP | 0.238
RRIRSRPPRLPRPRPRPSLEPRP | 0.0147
RRIRWRPPRLPRPRPRPREQPRP | 0.349
RRIRLRPPRLPRPRPRPVSWPRP | 0.22
RRIRKRPPRLPRPRPRPVQNPRP | 0.49
RRIRMRPPRLPRPRPRPQCLPRP | -0.108
RRIRCRPPRLPRPRPRPSCPPRP | -0.407
RRIRTRPPRLPRPRPRPEQRPRP | -0.000852
RRIRQRPPRLPRPRPRPVICPRP | -0.0945

Sequence | shrunken log2 fold change
RRIRQRPPRLPRPRPRPCLCPRP | -0.294
RRIRYRPPRLPRPRPRPQAHPRP | -0.149
RRIRQRPPRLPRPRPRPIQGPRP | -0.0863
RRIRVRPPRLPRPRPRPFCNPRP | 0.0823
RRIRQRPPRLPRPRPRPFLKPRP | -0.939
RRIRRRPPRLPRPRPRPHCNPRP | -0.135
RRIRWRPPRLPRPRPRPWVKPRP | -0.00207
RRIRIRPPRLPRPRPRPYKQPRP | -0.101
RRIRRRPPRLPRPRPRPQKAPRP | 0.0122
RRIRERPPRLPRPRPRPLLYPRP | -0.309
RRIRHRPPRLPRPRPRPACQPRP | 0.0463
RRIRQRPPRLPRPRPRPYVLPRP | -0.512
RRIRNRPPRLPRPRPRPLYSPRP | -0.761
RRIRIRPPRLPRPRPRPEFDPRP | 0.0326
RRIRIRPPRLPRPRPRPVQHPRP | -0.38
RRIRGRPPRLPRPRPRPMIQPRP | 0.522
RRIRKRPPRLPRPRPRPALIPRP | 0.2
RRIRQRPPRLPRPRPRPEGKPRP | 0.0352
RRIRQRPPRLPRPRPRPVGSPRP | 0.317
RRIRKRPPRLPRPRPRPSEYPRP | -0.026
RRIRWRPPRLPRPRPRPTCNPRP | 0.0836
RRIRGRPPRLPRPRPRPHTYPRP | -0.0875
RRIRDRPPRLPRPRPRPADVPRP | 0.384
RRIRKRPPRLPRPRPRPDPNPRP | 0.0802
RRIRCRPPRLPRPRPRPPALPRP | 0.415

Sequence | shrunken log2 fold change
RRIRARPPRLPRPRPRPLQTPRP | 0.0966
RRIRCRPPRLPRPRPRPPWEPRP | -0.0369
RRIRPRPPRLPRPRPRPYRVPRP | 0.101
RRIRARPPRLPRPRPRPITHPRP | -0.045
RRIRNRPPRLPRPRPRPPHHPRP | -0.11
RRIRERPPRLPRPRPRPHSTPRP | -0.817
RRIRWRPPRLPRPRPRPLVNPRP | -0.0798
RRIRTRPPRLPRPRPRPWHHPRP | 0.0255
RRIRLRPPRLPRPRPRPFHRPRP | -0.246
RRIRGRPPRLPRPRPRPSRDPRP | 0.921
RRIRARPPRLPRPRPRPERPPRP | 0.556
RRIRDRPPRLPRPRPRPFIEPRP | 0.0849
RRIRRRPPRLPRPRPRPHWKPRP | -0.00963
RRIRYRPPRLPRPRPRPFEMPRP | -0.738
RRIRQRPPRLPRPRPRPVVCPRP | 3.57
RRIRRRPPRLPRPRPRPFTTPRP | -0.0176
RRIRRRPPRLPRPRPRPFAIPRP | 0.102
RRIRQRPPRLPRPRPRPVEPPRP | 0.117
RRIRWRPPRLPRPRPRPYDMPRP | 0.0118
RRIRYRPPRLPRPRPRPTVMPRP | -0.176
RRIRSRPPRLPRPRPRPHVRPRP | 0.128
RRIRNRPPRLPRPRPRPSSMPRP | -0.458
RRIRHRPPRLPRPRPRPPGDPRP | 0.477
RRIRERPPRLPRPRPRPEWNPRP | -0.197
RRIRVRPPRLPRPRPRPRTVPRP | 0.16
